In experiment [1] the target is SCR-17/18H deglycosylated with PNGase F (human). Description: AUC; sedimentation velocity of the SCR fragments, 20 °C, 50,000 rpm, Hepes buffer (10 mM Hepes, 137 mM NaCl, pH 7.4), c(s) analysis in SEDFIT, proportions of monomer and dimer from peak integration; monomer to dimer.
The target in the next experiment is C3b C3b (Homo sapiens) (UniProt P01024). The following applies: cited from earlier work.
C3b C3b (Homo sapiens), sequence (P01024 566-670): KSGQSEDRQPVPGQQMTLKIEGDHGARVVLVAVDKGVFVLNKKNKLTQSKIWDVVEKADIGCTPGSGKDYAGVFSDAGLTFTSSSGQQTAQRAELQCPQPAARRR

Complement factor H, sequence (P08603 19-1231): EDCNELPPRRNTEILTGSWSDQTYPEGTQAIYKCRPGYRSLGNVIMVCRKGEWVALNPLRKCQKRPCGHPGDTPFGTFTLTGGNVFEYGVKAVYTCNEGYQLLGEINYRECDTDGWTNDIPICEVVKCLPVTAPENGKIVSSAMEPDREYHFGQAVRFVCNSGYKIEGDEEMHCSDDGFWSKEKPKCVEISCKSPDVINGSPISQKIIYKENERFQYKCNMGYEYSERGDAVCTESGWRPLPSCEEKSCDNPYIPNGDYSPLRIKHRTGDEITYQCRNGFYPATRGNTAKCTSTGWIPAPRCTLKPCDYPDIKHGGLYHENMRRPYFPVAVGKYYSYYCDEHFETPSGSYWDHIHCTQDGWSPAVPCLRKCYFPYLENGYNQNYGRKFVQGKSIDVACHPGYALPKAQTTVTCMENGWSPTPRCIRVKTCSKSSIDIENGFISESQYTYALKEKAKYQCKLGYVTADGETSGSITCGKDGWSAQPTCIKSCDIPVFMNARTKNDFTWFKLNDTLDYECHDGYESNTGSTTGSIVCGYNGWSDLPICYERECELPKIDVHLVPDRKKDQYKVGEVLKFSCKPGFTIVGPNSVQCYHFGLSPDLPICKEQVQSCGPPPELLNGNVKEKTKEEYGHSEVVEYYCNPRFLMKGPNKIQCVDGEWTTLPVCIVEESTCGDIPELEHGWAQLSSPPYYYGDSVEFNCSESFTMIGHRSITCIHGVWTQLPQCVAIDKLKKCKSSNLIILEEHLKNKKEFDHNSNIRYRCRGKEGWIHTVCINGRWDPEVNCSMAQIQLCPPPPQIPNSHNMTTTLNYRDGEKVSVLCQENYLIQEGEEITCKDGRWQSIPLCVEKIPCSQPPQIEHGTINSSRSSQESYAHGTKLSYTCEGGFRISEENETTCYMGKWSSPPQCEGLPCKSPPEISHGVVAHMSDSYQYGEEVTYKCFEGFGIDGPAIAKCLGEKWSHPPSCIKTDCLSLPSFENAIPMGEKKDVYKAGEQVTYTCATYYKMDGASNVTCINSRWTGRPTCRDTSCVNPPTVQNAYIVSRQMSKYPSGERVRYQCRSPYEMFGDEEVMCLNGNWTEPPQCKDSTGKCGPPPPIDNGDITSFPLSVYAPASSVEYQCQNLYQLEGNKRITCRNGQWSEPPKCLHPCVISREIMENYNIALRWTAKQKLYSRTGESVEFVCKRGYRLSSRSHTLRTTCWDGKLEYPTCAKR

In the case of “SCR-17/18H deglycosylated with PNGase F (domain or fragment)”, in experiment [1], the proportion of dimer is 16% and the stoichiometry N was determined as 2. On to “Complement factor H (from UniProt P08603)”, for which, in the experiment with C3b C3b (Homo sapiens), the Kd was 1.06 µM.

Values taken from article PMC11417181.
